Experimental data as given in the DeepSol protein solubility set.

Test: soluble on expression in E. coli; label from the status in PepcDB or PDB records

Sequence | soluble on expression in E. coli
MAESFTTTNRYFDNKHYPRGFSRHGDFTIKEAQLLERHGYAFNELDLGKREPVTEEEKLFVAVCRGEREPVTEAERVWSKYMTRIKRPKRFHTLSGGKPQVEGAEDYTDSDD | soluble
PLPEACADMLWSNLGLLAAEQILPVLHNWARALKTDGLLFFTCFGRDTLAELKCRLKENGIESRSALFPDMHDLGDMLAENGFYDPVTDTAKLVLDYKKAETFWADMDTLGVWRAMAWNDENAARSCVGTIFEREGGLGITLETVYGHAVK | not soluble
NVFMRKKDNTIDYRYFIEPNIMTSNIDDLLLEKPVAFQLEQFQKELIDSNVNPQLVQLVVDDATI | not soluble
MGSSHHHHHHGGTGENLYFQGGSGATAQNANPECVGPESPQAGIAPSCQGCPNAAICASAPKGPDPDIPLIRERLAGVKHKVMVVSGKGGVGKSTMTKELAFALGARGLSVGLMDMDICGPSLPRLTGVRGEDAHQSAGGIEPVLVDENVTMMSMHYLLSDKNEAVLFRGPRKNGVIKMFLKDVIWGNLDVLLIDTPPGTSDEHITVNSLLQQTTNGVDGAVLITTPQRVAEADVRREVNFCQKAKLPILGLVENMSGFVCPGCHKESQIFPKEEGGEGRKEGAGVRLSREFDVPLWGEVPLDPQLMKACEEGISFSEYVEKSGMTSSTTLDALFTVADQLIASLGIQVE | not soluble
ANSVQQQLEALEKSSGGRLGVALINTADNSQILYRADERFAMCSTSKVMAAAAVLKQSESDKHLLNQRVEIKKSDLVNYNPIAEKHVNGTMTLAELGAAALQYSDNTAMNKLIAHLGGPDKVTAFARSLGDETFRLDRTAPTLNTAIPGDPRDTTTPLAMAQTLKNLTLGKALAETQRAQLVTWLKGNTTGSASIRAGLPKSWVVGDKTGSGDYGTTNDIAVIWPENHAPLVLVTYFTQPEQKAERRRDILAAAAKIVTHGF | soluble
FFAAITAAERRCWIASPYFVPDLDILAALKHAALRGVDVRLLVPDEADHTIPWLAAFAYFDEVREAGVRVMRYTDGFLHQKVFVVDDTIAAVGTTNLDNRSFRLNFEAMALFFDATVAGQVTAMLEHDFASSTELTRSLAAQPVFIRYGAPLARLFAPIL | not soluble
LGKLDVLKVSAPWLASLRDELDQTCFLAVWGNKGPTVVYVEPSMGAVTLVTQIGSVLPLLSSSTGLVFDSFLAQGETALLREQETPRLSADQLHEVERHIKQIRATGVHQIQGMLMPGINAASSPLFAMGNKLVGVITVVGPGSVLNDKAQGQAARRLLETATAISERMGGSQLRS | soluble
ELEPGAFSELYQRYRHCDAPICLYEQGRDSFEDEGRWRLILCATCGSHGTHRDCSSLRPNSKKWECNECLPA | soluble
MSLTLTLKETLLASPGVLFLDDITIEKVESEKNLMILLPGLEYLVTRDLLRTKFPEYDFTGPENVRITVEGYSSLKNAVFEEIGKKAEAKDFEAFVVKTFGTLPEKFEPQTIRVTKISKNLFSVFLRFPDTYVTLNMLLRKERNVVVLKRNINVGDVIKEEDVRLEKRNVFEIYGEPFFDVSEVVGKISRRYLKEGTVLTADMVKDPPDVVKGQVVPAYVDMGSIKVTTFVEVLENGYLGETVRAMNVESRKYVFGRVERGPVLRILEVVEGHHHHHH | soluble
MGSDKIHHHHHHMSHLPHLIAKLENHAEWVKRLVLVGQKSWHTPLQKGGWSPAEVIHHFHRWDDFARNYRFIPFLAGRATFTAGAHAKFNEHSEREVRDGLGKEAIIVQCLKSRYALIETVEKLREEAWEQTLTIGDHDLSIHTYLQGVIEHDRHHREQIEQFFSLEQQGKLPMVNITERCGEELPMNLLLLADPEQAMIERYLSGGLGFLAEVEGTPVGVIVLKDKGHGLFEVMNIAVAEQEQGKGYGKLLLLHGIHVALKRGADRIEIGTGNSSIGQLALYQRCGFSITAVDKDFFTKHYHEPIVEQGIRCEHMIRLAQDLK | not soluble
MDGDFRTDFVREPGALKHHPALVLNADYRPLSYYPLSLWPWQEAIKAAWLDRVDIIAEYDEVVRSPSVVLRIPSVVVLKDYVKPQKRVAFTRFNLFLRDEFRCQYCGGKGDLTFDHVVPRAAGGVTSWENVVAACAPCNLRKGSKSLRQANMSLRRPPRRPQAEELQNVGRKFPPNHLHESWMDFLYWDAELDALEHHHHHH | not soluble
MGSDKIHHHHHHMLTYDLTKTDGPLYKCLYECIKNDISQGKLSSGEKMPSKRTLAKNLGVSTITVENAYDQLIGEGYMFARPKKGYFIADVSDIRVIKAPVQKELSIKLPPEQDESIFDFSSNRTDSGNFPFSIWAKLMRETISLREQELLSVSPCGGVRELREAIASHLSSFRGMNVDPDQIIVGAGTEYLYGLLVKLLGTDKVYCVEDPGYKKISQIYECNNAKCLPVQMDEQGISVELIKKANAQIAHISPTHHFPTGITMPVNRRYELLAWANESSDRYIIEDDYDSEFRMNGHPIPPILSIDACEKVIYINTFSKSLTSTIRISYMVLPEHLANEFYRRLSFYSCTVSTFEQYTLARFISEGYFEKHINRMRLHYGRKRQSVLSSIKGCFTEKECRVIENDSGLHFIIQFDTNLPDKTVEERLLKKGIKLQAITHFNLIKPKEDRHQFIINYSNIDADRIMDELLIIKDTIL | not soluble
MGSDKIHHHHHHMYRILVINPGSSSTKVAVFEDEKKIAEKNVSHSVEELKKFKRSMDQEPLRRKAVEDFIDEVGYRIEDFSAIAARGGVLEPVPGGTYVVNEYMVDYLINRSPVDHVSNLAAVIGYKLGKPHGIPCFVVDPVSVDEMCDEARFSGIPEIERKSYSHALNIKAVLRKVSREMGKTPEEVKIVVAHLGSGISVCACKNGKIIDVNNANDEGPFSIERTGELPVGDVVKTAYSSKHSAAELKEEFTRKGGLLAYLGTKNLKKALDSMETSRKAKLVVEAMAYQIAKEIGGMCAVLGEKPDAIVITGGMAHEIRFVRMITDYIEKFGKVEVIPGELEMEALALGVLRVLRGEEKAMDYRSVVE | not soluble
MRIELSIKADDSLVSFSHQHLLVGTLQKWLGENDMHGKSISYSFSRLNGGKLVSELNSILFADWANMFVSAHDPELIRRMLAGIRQDPEMFKSLCVREVTVIEDPDMTDREIFFPASPILLKRWREDNGFDHIVYTDEAANALLTENLRKKLQAVGIDDPTATASFVPDQGKAKVMLIDYRGVKNKASWCPIRIIGNAETKLFAWNAGIGNSTGIGFGAIK | not soluble
TLINHLKSLKSQVSAKSASETSQTKQNKTFLAFTTVNADQKAIFDVGKLNGKTAKIIINATETTNAKISTLQEKEAIVLKAPQRFESTDPFPI | not soluble
GMSTDTCIKRPTRSELVDRFQKKIRAGEPIIGGGAGTGLSAKSEEAGDIDLIVIYNSGRYRMAGRGSLAGLLAYGNANQIVVDMAREVLPVVRHTPVLAGVNGTDPFMVMSTFLRELKEIGFAGVQNFPTVGLIDGLFRQNLEETGMSYAQEVEMIAEAHKLDLLTTPYVFSPEDAVAMAKAGADILVCHMGLTTGGAIGARSGKSMDDCVSLINECIEAARTIRDDIIILSHGGPIANPEDARFILDSCQGCHGFYGASSMERLPAEEAIRSQTLAFKAIRRQPA | soluble
MAHHHHHHMHFSQYPLRLTDLERQKLQLIVAALKVSEYTDDVDDFMRPYGKEGRMEAAMREFIDIVVGLAIASDAIPRSVKNSFLAGEVKVATVVPLLEDLFEIMRRHKRLNPFSHRGEFGKLMMMLQDVQKRSLQRALEIQSTLVIPVRTVEAALSSIYCETLVDDEAVRTDYLKRTGAEKQAGMQSLIERYGKGDEHKKEVIEHCLRSIDDVYSFIQSNTRPLRTLRRWLSRDFEPLPSDDVYSISIRHGRSGACFTHSHATHCQYVTESLLLWENVQKNILNLWEAAEDDMLVEGQGQYVVANTGQGFHRMCSAPKSYGVMSRLVRDTEQRMGGWVGIKVIHLGDRDVPNPLVFIDKYTVIPRLVKPVVQTLHALRYVLHEEDEEEEGQPQVAHEYDNYPGLRNLLRSKYHSYSELMMMILSDFFKHAFDGSGDDGGSCIDGRLTSAWNWCHQLHKKKYYDAFVLTGFAGFD | not soluble
MELSLSRVHFPVTTLGPGRRLGIWFQGCSIRCPGCISADTWGPGRRRIALARLLADIQPWLEQAEGITVSGGEPFEQFAALLALLGELRRRSRADILVYSGYPLEHLHAQLEQAAGLIDALISDPYQQHAEQSLALRGSDNQRLSLLTELGRARLGGYQRPLREDDKALDLMFDHDGSVWMAGIPRRDDLLRLQDLLREQGHQLSVSAHRPR | not soluble
LTRFSAGYGSDSMLEASADIGRRFGPDDSVGIRINAAQRGGETAIDGERTRTTVFALGLDWRGERARLSADIGYQDNRLKRARPNVTLAGDAAKVPGAPDAGSNYAQPWSYSNERDVFGTLRGEYDFNDRITGWAAYGMRQSKEENSLANLNGVNGAGQGKFYRFDNAREDTVNTGEIGLRAKARTGPVGHELVASASYFDLEKKNAYVMDFFNQFDTSIYDPVSYAKPAISSTAFRGNDMDDPAKQGVIRLASYALGDTMSFFDDKVLLTAGIRHQRLYQRDYSYDTGIGGTPYEQSHNSPAAGLVVRVTPQVSLYANYIEALSAGDTAPQTANGLPVVNHGESLAPYVSKQKEVGVKFEHDGLGGGLALFSTDKPRGFVGDDQVFRASGKDRHRGVELTTYGELTRSVRVLGGLTWLDAKQLSTGNAATDGKRVIGVPRFQANLGVEWDIPGVQGLTVDGRVVYTGSSYADAANTLEVPGWTRLDAGLRYMTDIGGHLVTWRARVENIANRDYWSSVGGYPGNGYLVLGGPRTFTLSASMEF | not soluble
MDYTIIDAHAHLWLRQDTVVDGFPIRTLENGRSLFMGEIRQMVPPFMIDGVNSAEVFLSNMDYAQVSAAVITQEFIDGIQNDYLMEVVSRYPDRFFVCGMCEFRKPGYLEQAKELIGKGFKAIKIPAQRLLLKEGRVMLNCPEMMQMFRWMEERGVILSVDLAEGAIQVLEMEEIIQECPRLKIAVGHFGMVTLPDWKEQIKLARHPNVMIESGGITWLFNDEFYPFKGAIKAIREAAELVGMEKLMWGSDYPRTITAITYKMSYDFVVKSPELSEAEKTLFLGGNARKFYGFAELPELPYIKNMSE | not soluble
MKEESRAKTGRKPKSDPADYKYSFRLNAGENMRFEKLVTESEAKDKTRFIKKAIFGGTIKVVKIDKATMDYYIRLTEFHRQFQTIGNNYNQVVRAIRSNFGEKRAMSLLYKLEKMTLELMLLTKKVIALTEEYQKKWLQK | not soluble
MTRTNKWTEREGKADPKYFSHTGNYGESPNHIKKQGSGKGNWGKPGDEIDDLIDNGEIPPVFKKDRRGSNLQSHEQKFENVQKE | not soluble
MSLRRILHMTEKKKKIGFNIVKNDSTDGHGGFGVGALSLENISPVFVDVLEKTAFVDIGAMHARSTVEKGIKFLTNKDEVPNGKPFWLVWVTIERTATGAYYAGVTACEMTVDREIRRGYKSLPEHVNKMDKSMKRHIMVDHMDESSKKVLGTFLKEHNEAIWNESGEELRRALLSEEGHHHHHH | soluble
MGSDKIHHHHHHMTQHPFISRVAVRNYKSIGYCDVNLRPLTYLVGHNGAGKSNFMDALHFVCDALSYSLDSALNERGGINEVRRRSGGHPTHFALRVEFVMQSGQAGRYGFVIGALKNGGYEVQREECVVAGIGKGPFFRIEKGKLRDSSETTFPSVTADRLALVAASGLTAFRPVFDALTAMGFYNLNPKLMRELQKPQDGRLLRPAGENIASVIGHLEKVAPAQMALIQEYLHSVAPMVHGVERKPIGPMETLEFRQDMAGSKHPWRFLAQNMSDGTLRALGVLSALLQGNVDYSPTLIGIEEPETALHPAASAALREALVRASETTQVLVTSHSPDLLDDHSIDADAVLAVVSEAGETKVAPLDEGSRQVMRDHLFSAGELLRMNQLAPDRASLEQQDKAASGDLFGETESV | not soluble
